Square brackets hold non-standard residues; d marks the D form. Primed or numbered codes have the meaning given here. Ends that are not written are not given here. PEG12′ = not defined here
What was measured:
Assay in all cases: cell-based or functional assay
[1] = target: T1, Apelin Receptor (APJ) stably overexpressed in CHO-K1 AGTRL1 Gi cells (UniProt P35414 1-380, limits assumed)
T1 sequence (looked up): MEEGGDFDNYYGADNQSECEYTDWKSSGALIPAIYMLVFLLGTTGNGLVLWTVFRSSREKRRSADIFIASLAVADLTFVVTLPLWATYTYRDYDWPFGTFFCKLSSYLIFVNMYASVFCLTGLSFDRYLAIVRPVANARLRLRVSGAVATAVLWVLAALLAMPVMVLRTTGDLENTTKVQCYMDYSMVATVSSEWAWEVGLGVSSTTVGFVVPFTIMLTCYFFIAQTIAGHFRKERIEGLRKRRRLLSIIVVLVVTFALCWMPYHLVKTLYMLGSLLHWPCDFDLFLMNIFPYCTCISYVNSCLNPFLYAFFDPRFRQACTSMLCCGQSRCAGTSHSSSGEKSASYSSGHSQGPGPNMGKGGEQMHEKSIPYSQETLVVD

[2] = target: ProLink tagged human APJ (Apelin Receptor) in CHO-K1 AGTRL1 β-Arrestin cells (human, UniProt P35414 1-380)
[3] = target: T1, Apelin Receptor (APJ) stably …; remark: listed apart in the source

RRIIGIVFQSLCG[dA] [SEQ ID NO: 43]
IC50 (M), inhibition of forskolin-stimulated cAMP accumulation [1]: 2.07e-06 M

RMMGMVF [SEQ ID NO: 50]
β-Arrestin recruitment, Percent of Apelin-13 Control Activity (10 µM peptide) [2]: 0% | inhibition of forskolin-induced cAMP, Percent of Pyr-Apelin-13 Control Activity (10 µM peptide) [3]: 8%

RRMMGMVFQELCG[dA] [SEQ ID NO: 13]
β-Arrestin recruitment, Percent of Apelin-13 Control Activity (10 µM peptide) [2]: 1% | inhibition of forskolin-induced cAMP, Percent of Pyr-Apelin-13 Control Activity (10 µM peptide) [3]: 49%

MRRMMGMVFQCLCGL [SEQ ID NO: 7]
β-Arrestin recruitment, Percent of Apelin-13 Control Activity (10 µM peptide) [2]: 91% | inhibition of forskolin-induced cAMP, Percent of Pyr-Apelin-13 Control Activity (10 µM peptide) [3]: 109% | IC50 (M), inhibition of forskolin-stimulated cAMP accumulation [1]: 1.24e-06 M

RMMGMVFQ [SEQ ID NO: 51]
β-Arrestin recruitment, Percent of Apelin-13 Control Activity (10 µM peptide) [2]: 0% | inhibition of forskolin-induced cAMP, Percent of Pyr-Apelin-13 Control Activity (10 µM peptide) [3]: 24%

MMGMVFQSLCG[dA] [SEQ ID NO: 49]
β-Arrestin recruitment, Percent of Apelin-13 Control Activity (10 µM peptide) [2]: 1% | inhibition of forskolin-induced cAMP, Percent of Pyr-Apelin-13 Control Activity (10 µM peptide) [3]: 14%

MMGMVFQ [SEQ ID NO: 46]
β-Arrestin recruitment, Percent of Apelin-13 Control Activity (10 µM peptide) [2]: 0% | inhibition of forskolin-induced cAMP, Percent of Pyr-Apelin-13 Control Activity (10 µM peptide) [3]: 11%

KRRMMGMVFQSLCGA ((PEG12) at the N-terminal K; C-terminal (dA) = D-alanine) [SEQ ID NO: 36]
β-Arrestin recruitment, Percent of Apelin-13 Control Activity (10 µM peptide) [2]: 63% | inhibition of forskolin-induced cAMP, Percent of Pyr-Apelin-13 Control Activity (10 µM peptide) [3]: 101% | IC50 (M), inhibition of forskolin-stimulated cAMP accumulation [1]: 1.6e-06 M

KRRLLGLVFQSLCGA ((PEG12) at the N-terminal K; C-terminal (dA) = D-alanine) [SEQ ID NO: 37]
β-Arrestin recruitment, Percent of Apelin-13 Control Activity (10 µM peptide) [2]: 12% | inhibition of forskolin-induced cAMP, Percent of Pyr-Apelin-13 Control Activity (10 µM peptide) [3]: 53% | IC50 (M), inhibition of forskolin-stimulated cAMP accumulation [1]: 2.5e-06 M

MMGMVFQS [SEQ ID NO: 47]
β-Arrestin recruitment, Percent of Apelin-13 Control Activity (10 µM peptide) [2]: 1% | inhibition of forskolin-induced cAMP, Percent of Pyr-Apelin-13 Control Activity (10 µM peptide) [3]: -6%

RRMMGMVAQCLCG[dA] (cysteine pairing not given here) [SEQ ID NO: 11]
β-Arrestin recruitment, Percent of Apelin-13 Control Activity (10 µM peptide) [2]: 0% | inhibition of forskolin-induced cAMP, Percent of Pyr-Apelin-13 Control Activity (10 µM peptide) [3]: 49%

RRMMGMVEQCLCG[dA] (cysteine pairing not given here) [SEQ ID NO: 12]
β-Arrestin recruitment, Percent of Apelin-13 Control Activity (10 µM peptide) [2]: -1% | inhibition of forskolin-induced cAMP, Percent of Pyr-Apelin-13 Control Activity (10 µM peptide) [3]: 24%

RRMMGMVFQCLEG[dA] [SEQ ID NO: 14]
β-Arrestin recruitment, Percent of Apelin-13 Control Activity (10 µM peptide) [2]: 0% | inhibition of forskolin-induced cAMP, Percent of Pyr-Apelin-13 Control Activity (10 µM peptide) [3]: 39%

[PEG12′]KRRIIGIVFQCLCG[dA] (cysteine pairing not given here) [SEQ ID NO: 42]
β-Arrestin recruitment, Percent of Apelin-13 Control Activity (10 µM peptide) [2]: 8% | inhibition of forskolin-induced cAMP, Percent of Pyr-Apelin-13 Control Activity (10 µM peptide) [3]: 33% | IC50 (M), inhibition of forskolin-stimulated cAMP accumulation [1]: 4.38e-06 M

MMGMVFQSL [SEQ ID NO: 48]
β-Arrestin recruitment, Percent of Apelin-13 Control Activity (10 µM peptide) [2]: 1% | inhibition of forskolin-induced cAMP, Percent of Pyr-Apelin-13 Control Activity (10 µM peptide) [3]: 15%

RRMMGMVFQSLCG[dA] (also: acetate salt, HCl salt) [SEQ ID NO: 15]
β-Arrestin recruitment, Percent of Apelin-13 Control Activity (10 µM peptide) [2]: 40% | inhibition of forskolin-induced cAMP, Percent of Pyr-Apelin-13 Control Activity (10 µM peptide) [3]: 105% | IC50 (M), inhibition of forskolin-stimulated cAMP accumulation [1]: 4.49e-06 M
